± gives the uncertainty stated by the source.
Experiment: self-splicing fitness, log relative to wild type (ln ratio); higher = more splicing; Tetrahymena group I intron in knt gene, E. coli kanamycin selection, DiMSum; sequences stand for … in CUCUCU…GGAGGGAAAAGUUAUCAGGCAUGCACCUGGUAGCUAGUCUUUAAACCAAUAGAUUGCAUCGGUUUAAAAGGCAAGACCGUCAAAUUGCGGGAAAGGGGUCAACAGCCGUUCAGUACCAAGUCUCAGGGGAAACUUUGAGAUGGCCUUGCAAAGGGUAUGGUAAUAAGCUGACGGACAUGGUCCUAACCACGCAGCCAAGUCCUAAGUCAACAGAUCUUCUGUUGAUAUGGAUGCAGUUCACAGACUAAAUGUCGGUCGGGGAAGAUGUAUUCUUCUCAUAAGAUAUAGUCGGACCUCUCCUUAAUGGGAGCUAGCGGAUGAAGUGAUGCAACACUGGAGCCGCUGGGAACUAAUUUGUAUGCGAAAGUAUAUUGAUUAGUUUUGGAGUACUCGUGGUCG
How it was run: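 Library with all eight P1ex-region intron nucleotides randomised, intron inside the knt kanamycin-resistance gene on pET-22b(+), in E. coli BL21(DE3). Cells grew overnight at 37°C or 30°C on LB agar with or without 25 μg/mL kanamycin (plus 100 μg/mL carbenicillin, 50 μM IPTG, 0.2% rhamnose), in six replicate transformations. Pooled colonies were amplicon-sequenced on Illumina HiSeq 2500. DiMSum fitness is the error-weighted combination of wild-type-normalised replicate fold changes, kanamycin versus none.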

Sequence | self-splicing fitness (ln) (30 °C) | self-splicing fitness (ln) (37 °C)
UGUUAGCAAUAUUACGCUUU | -2.85 ± 0.2 | -1.32 ± 0.14
UGUUAGCAAUAUUACGGAUA | -1.36 ± 0.13 | -1.45 ± 0.12
UGUUAGCAAUAUUACGGAUU | -2.53 ± 0.16 | -0.414 ± 0.13
UGUUAGCAAUAUUACGGCCG | 0.71 ± 0.11 | 0.567 ± 0.17
UGUUAGCAAUAUUACGGCCU | -0.213 ± 0.27 | 0.286 ± 0.25
UGUUAGCAAUAUUACGGGGU | -2.47 ± 0.26 | 
UGUUAGCAAUAUUACGGUGG | -1.95 ± 0.16 | -0.147 ± 0.16
UGUUAGCAAUAUUACGGUGU | -2.57 ± 0.17 | -1.92 ± 0.18
UGUUAGCAAUAUUACGUGAC | -2.93 ± 0.31 | -2.01 ± 0.29
UGUUAGCAAUAUUACGUGAG | -1.02 ± 0.051 | -0.331 ± 0.065
UGUUAGCAAUAUUACGUGAU | -1.77 ± 0.14 | -1.96 ± 0.25
UUAAAGCAAUAUUACGAAAU | -3.49 ± 0.3 | -2.12 ± 0.24
UUAAAGCAAUAUUACGAAGU | -3.67 ± 0.44 | -2.47 ± 0.39
UUAAAGCAAUAUUACGAAUA | -1.71 ± 0.088 | -0.164 ± 0.12
UUAAAGCAAUAUUACGACGC | -0.776 ± 0.077 | 0.177 ± 0.11
UUAAAGCAAUAUUACGAUCA | 0.0315 ± 0.083 | 0.412 ± 0.097
UUAAAGCAAUAUUACGAUGU | -1.91 ± 0.1 | -0.671 ± 0.15
UUAAAGCAAUAUUACGAUUU | -0.89 ± 0.063 | 0.0458 ± 0.099
UUAAAGCAAUAUUACGCCAU | -2.96 ± 0.17 | -1.14 ± 0.15

Sequence | self-splicing fitness (ln) (30 °C) | self-splicing fitness (ln) (37 °C)
UUAAAGCAAUAUUACGCCGA | -0.193 ± 0.12 | 0.491 ± 0.15
UUAAAGCAAUAUUACGCCUA | 0.0988 ± 0.091 | 0.8 ± 0.14
UUAAAGCAAUAUUACGCCUU | -1.96 ± 0.18 | -1.28 ± 0.19
UUAAAGCAAUAUUACGCGCA | -0.137 ± 0.072 | -0.0874 ± 0.1
UUAAAGCAAUAUUACGCUCA | 0.0308 ± 0.097 | 0.489 ± 0.14
UUAAAGCAAUAUUACGCUGA | -0.633 ± 0.098 | -0.46 ± 0.14
UUAAAGCAAUAUUACGCUGG | -0.4 ± 0.11 | -0.152 ± 0.12
UUAAAGCAAUAUUACGGAAG | -1.67 ± 0.087 | -0.452 ± 0.11
UUAAAGCAAUAUUACGGACU | -0.204 ± 0.096 | -0.0989 ± 0.11
UUAAAGCAAUAUUACGGAGG | -1.34 ± 0.12 | -1.27 ± 0.17
UUAAAGCAAUAUUACGGAUG | -0.473 ± 0.074 | -0.418 ± 0.1
UUAAAGCAAUAUUACGGCAG | 0.129 ± 0.086 | 0.214 ± 0.11
UUAAAGCAAUAUUACGGCCU | -0.459 ± 0.12 | 0.567 ± 0.16
UUAAAGCAAUAUUACGGGUC | -3.44 ± 0.22 | -2.48 ± 0.24
UUAAAGCAAUAUUACGGUAG | -0.312 ± 0.076 | 0.29 ± 0.11
UUAAAGCAAUAUUACGGUGU | -2.73 ± 0.11 | -1.29 ± 0.1
UUAAAGCAAUAUUACGGUUU | -2.12 ± 0.075 | -1.22 ± 0.097
UUAAAGCAAUAUUACGUGAC | -1.93 ± 0.15 | -1.91 ± 0.18
UUAAAGCAAUAUUACGUGAG | -0.984 ± 0.063 | -0.201 ± 0.1

From the supplement of paper PMC7877785
